Laboratory results reported in the supplement of paper PMC10065799, “High-throughput profiling of sequence recognition by tyrosine kinases and SH2 domains using bacterial peptide display” (eLife, 2023).

Columns and labels:
c-Src SH2 = assay: SH2 binding enrichment of the phosphorylated peptide, bacterial display (enrichment ratio); higher = better substrate or ligand; peptides without Tyr show the background
Grb2 SH2 = Grb2 SH2 (UniProt P62993); assay: as above
SHP2-C SH2 = assay: as above
Fer (mouse) = assay: phosphorylation enrichment, bacterial display (enrichment ratio); higher = better substrate or ligand; peptides without Tyr show the background
FGFR1 = FGFR1 (UniProt P11362); assay: as above
Chain of FGFR1 (P11362 whole entry, looked up): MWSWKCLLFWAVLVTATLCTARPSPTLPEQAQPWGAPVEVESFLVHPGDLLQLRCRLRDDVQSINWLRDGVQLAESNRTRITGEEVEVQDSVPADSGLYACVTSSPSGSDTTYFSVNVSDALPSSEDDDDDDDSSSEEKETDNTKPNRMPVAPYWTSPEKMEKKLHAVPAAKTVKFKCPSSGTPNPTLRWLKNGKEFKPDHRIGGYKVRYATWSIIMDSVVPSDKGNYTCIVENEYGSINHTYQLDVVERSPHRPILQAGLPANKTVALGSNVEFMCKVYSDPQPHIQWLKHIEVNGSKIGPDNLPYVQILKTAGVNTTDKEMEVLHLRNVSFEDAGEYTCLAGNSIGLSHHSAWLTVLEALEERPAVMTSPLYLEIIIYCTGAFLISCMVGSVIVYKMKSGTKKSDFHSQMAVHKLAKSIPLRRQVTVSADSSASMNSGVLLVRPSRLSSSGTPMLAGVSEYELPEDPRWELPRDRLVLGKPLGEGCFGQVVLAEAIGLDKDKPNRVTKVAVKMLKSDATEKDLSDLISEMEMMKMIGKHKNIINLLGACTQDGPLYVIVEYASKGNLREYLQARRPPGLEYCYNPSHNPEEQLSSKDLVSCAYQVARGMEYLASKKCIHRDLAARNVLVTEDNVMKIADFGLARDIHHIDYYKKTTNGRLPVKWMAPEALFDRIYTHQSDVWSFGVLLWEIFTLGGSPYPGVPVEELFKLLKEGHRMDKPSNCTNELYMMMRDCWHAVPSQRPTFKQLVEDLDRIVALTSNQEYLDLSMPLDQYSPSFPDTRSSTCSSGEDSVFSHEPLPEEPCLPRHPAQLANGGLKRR

EPHB1 = EPHB1 (UniProt P54762); assay: as above
Chain of EPHB1 (P54762 whole entry, looked up): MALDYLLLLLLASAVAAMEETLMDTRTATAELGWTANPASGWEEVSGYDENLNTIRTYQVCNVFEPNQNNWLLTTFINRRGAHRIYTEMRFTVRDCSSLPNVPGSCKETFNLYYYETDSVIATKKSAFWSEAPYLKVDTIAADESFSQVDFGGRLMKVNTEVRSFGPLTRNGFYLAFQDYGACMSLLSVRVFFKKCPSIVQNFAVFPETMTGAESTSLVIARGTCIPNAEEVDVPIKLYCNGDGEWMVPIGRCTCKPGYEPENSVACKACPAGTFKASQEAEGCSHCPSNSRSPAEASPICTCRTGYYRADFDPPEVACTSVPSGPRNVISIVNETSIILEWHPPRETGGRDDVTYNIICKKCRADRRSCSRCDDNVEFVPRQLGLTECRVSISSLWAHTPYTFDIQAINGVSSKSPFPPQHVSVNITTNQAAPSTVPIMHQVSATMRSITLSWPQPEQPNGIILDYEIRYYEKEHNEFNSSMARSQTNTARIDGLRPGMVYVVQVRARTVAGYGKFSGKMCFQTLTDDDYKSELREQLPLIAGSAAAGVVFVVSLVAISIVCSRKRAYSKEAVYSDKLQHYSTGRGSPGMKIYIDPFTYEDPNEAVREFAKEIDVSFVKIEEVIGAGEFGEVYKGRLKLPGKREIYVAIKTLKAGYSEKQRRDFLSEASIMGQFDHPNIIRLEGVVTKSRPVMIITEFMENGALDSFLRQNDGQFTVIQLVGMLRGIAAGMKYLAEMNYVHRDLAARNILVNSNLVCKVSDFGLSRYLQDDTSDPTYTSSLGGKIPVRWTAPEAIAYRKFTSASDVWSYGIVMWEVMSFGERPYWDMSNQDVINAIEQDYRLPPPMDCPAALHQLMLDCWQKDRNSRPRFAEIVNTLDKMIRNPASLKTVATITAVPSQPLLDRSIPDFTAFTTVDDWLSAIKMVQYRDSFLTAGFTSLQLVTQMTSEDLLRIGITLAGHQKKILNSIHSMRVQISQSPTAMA

Fes = Fes (UniProt P07332); assay: as above
EPHB2 = EPHB2 (UniProt P29323); assay: as above
Jak2 = Jak2 (UniProt O60674); assay: as above
Chain of Jak2 (O60674 whole entry, looked up): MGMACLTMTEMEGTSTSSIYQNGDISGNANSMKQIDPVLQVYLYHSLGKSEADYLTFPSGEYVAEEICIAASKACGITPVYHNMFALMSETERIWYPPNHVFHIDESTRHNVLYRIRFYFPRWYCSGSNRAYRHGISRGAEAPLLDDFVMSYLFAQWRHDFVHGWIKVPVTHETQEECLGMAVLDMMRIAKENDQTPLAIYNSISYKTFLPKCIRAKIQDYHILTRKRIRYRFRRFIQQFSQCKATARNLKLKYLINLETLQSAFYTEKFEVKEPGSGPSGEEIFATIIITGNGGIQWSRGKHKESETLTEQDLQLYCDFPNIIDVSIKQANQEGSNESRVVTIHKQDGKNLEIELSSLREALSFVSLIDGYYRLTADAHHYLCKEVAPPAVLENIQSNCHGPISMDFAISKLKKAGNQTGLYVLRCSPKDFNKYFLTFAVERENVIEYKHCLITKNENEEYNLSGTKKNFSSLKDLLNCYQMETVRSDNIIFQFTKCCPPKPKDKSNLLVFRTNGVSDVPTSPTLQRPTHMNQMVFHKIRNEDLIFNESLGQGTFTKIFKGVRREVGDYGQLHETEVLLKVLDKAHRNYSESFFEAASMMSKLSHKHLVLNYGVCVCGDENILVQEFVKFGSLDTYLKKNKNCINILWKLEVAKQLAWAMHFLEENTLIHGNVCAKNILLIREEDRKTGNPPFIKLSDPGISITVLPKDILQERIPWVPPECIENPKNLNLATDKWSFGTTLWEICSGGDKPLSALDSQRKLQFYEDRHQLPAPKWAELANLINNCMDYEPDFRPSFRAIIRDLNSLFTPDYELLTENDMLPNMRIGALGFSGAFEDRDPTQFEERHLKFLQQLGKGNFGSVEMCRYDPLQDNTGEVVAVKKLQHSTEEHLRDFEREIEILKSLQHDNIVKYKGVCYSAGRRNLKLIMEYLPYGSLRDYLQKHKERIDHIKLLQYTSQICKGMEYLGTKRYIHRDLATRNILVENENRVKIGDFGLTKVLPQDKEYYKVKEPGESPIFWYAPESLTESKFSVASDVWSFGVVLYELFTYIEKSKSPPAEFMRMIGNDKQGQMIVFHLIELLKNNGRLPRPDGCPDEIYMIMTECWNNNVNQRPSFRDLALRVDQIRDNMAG

FGFR3 = FGFR3 (UniProt P22607); assay: as above
c-Abl (mouse) = assay: as above
AncSZ = assay: as above
c-Src = assay: as above
Hck = Hck (UniProt P08631); assay: as above
MERTK = MERTK (UniProt Q12866); assay: as above
Chain of MERTK (Q12866 whole entry, looked up): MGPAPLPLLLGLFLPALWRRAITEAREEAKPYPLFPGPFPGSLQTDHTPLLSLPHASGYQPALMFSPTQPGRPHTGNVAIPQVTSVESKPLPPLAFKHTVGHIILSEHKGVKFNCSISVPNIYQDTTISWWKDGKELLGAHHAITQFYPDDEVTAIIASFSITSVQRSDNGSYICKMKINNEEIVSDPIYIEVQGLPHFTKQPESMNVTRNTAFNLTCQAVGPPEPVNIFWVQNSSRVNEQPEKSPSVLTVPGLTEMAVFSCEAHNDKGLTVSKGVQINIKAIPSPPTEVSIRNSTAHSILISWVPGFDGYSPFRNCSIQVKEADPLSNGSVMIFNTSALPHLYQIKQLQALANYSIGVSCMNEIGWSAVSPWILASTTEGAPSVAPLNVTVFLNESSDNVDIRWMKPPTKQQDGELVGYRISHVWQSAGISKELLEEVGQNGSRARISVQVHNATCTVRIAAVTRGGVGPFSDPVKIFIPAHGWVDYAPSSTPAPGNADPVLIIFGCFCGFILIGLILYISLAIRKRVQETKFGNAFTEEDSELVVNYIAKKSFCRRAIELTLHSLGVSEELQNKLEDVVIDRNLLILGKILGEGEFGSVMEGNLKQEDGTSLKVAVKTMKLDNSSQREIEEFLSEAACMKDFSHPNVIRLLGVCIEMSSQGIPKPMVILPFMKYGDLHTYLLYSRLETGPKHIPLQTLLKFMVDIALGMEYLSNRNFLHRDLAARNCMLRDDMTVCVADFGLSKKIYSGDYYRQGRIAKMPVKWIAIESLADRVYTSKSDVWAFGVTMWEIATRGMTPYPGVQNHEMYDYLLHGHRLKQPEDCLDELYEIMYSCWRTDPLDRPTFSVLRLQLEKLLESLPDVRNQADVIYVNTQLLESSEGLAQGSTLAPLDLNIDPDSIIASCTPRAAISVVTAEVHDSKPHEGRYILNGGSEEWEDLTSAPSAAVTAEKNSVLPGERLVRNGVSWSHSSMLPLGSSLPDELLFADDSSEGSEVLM

Fyn = Fyn (UniProt P06241); assay: as above
Chain of Fyn (P06241 whole entry, looked up, the tested form may be a part): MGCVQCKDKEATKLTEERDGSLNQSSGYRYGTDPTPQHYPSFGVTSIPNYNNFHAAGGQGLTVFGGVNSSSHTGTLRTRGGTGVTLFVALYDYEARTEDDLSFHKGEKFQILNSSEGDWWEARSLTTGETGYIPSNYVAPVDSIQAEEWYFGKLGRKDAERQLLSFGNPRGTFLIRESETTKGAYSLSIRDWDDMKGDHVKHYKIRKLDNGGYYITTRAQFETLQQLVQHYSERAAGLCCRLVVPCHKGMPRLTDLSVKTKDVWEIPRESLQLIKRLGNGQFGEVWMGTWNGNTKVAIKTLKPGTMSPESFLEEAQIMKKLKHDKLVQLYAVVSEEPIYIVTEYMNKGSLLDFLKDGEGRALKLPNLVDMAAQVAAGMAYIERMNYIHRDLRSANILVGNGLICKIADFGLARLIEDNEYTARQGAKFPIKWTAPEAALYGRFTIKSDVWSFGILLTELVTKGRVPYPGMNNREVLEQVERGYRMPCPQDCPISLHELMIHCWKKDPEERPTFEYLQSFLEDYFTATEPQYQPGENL
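Throughout, for SH2 binding enrichment of the phosphorylated peptide, bacterial display: peptide library displayed on the E. coli surface as eCPX fusions, selected cells deep-sequenced, score is each peptide's frequency after selection divided by its frequency in the input.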
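Throughout, for phosphorylation enrichment, bacterial display: 11-residue human phosphosite peptides and single-mutation variants displayed on the E. coli surface, counted by deep sequencing, each peptide's frequency after selection divided by its frequency in the unselected input library; frequency after pTyr selection over input frequency; kinase dosed for 20-30% of maximal phosphorylation in three min.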

Chain of Grb2 SH2 (P62993 whole entry, looked up): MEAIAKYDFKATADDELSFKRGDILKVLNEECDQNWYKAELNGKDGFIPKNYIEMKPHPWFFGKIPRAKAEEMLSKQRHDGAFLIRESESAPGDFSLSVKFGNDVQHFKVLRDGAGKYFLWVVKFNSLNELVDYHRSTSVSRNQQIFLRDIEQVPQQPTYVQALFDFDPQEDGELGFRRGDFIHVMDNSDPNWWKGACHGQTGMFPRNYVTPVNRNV

## ARVANYQRDGP [CAT_Y386]
c-Src SH2
  SH2 binding enrichment: 0.32
Grb2 SH2
  SH2 binding enrichment: 0.606
SHP2-C SH2
  SH2 binding enrichment: 0.342
Fer (mouse)
  phosphorylation enrichment: 0.394
FGFR1
  phosphorylation enrichment: 0.524
EPHB1
  phosphorylation enrichment: 0.564
Fes
  phosphorylation enrichment: 0.607
EPHB2
  phosphorylation enrichment: 0.406
Jak2
  phosphorylation enrichment: 0.486
FGFR3
  phosphorylation enrichment: 0.526
c-Abl (mouse)
  phosphorylation enrichment: 0.496
AncSZ
  phosphorylation enrichment: 0.785
c-Src
  phosphorylation enrichment: 0.545
Hck
  phosphorylation enrichment: 0.386
MERTK
  phosphorylation enrichment: 0.574
Fyn
  phosphorylation enrichment: 0.436

## SVTCTYSLALN [TP53_Y126_P128L]
c-Src SH2
  SH2 binding enrichment: 0.503
Grb2 SH2
  SH2 binding enrichment: 0.956
SHP2-C SH2
  SH2 binding enrichment: 0.781
Fer (mouse)
  phosphorylation enrichment: 0.558
FGFR1
  phosphorylation enrichment: 0.653
EPHB1
  phosphorylation enrichment: 0.688
Fes
  phosphorylation enrichment: 1.38
EPHB2
  phosphorylation enrichment: 0.6
Jak2
  phosphorylation enrichment: 1.13
FGFR3
  phosphorylation enrichment: 0.802
c-Abl (mouse)
  phosphorylation enrichment: 0.951
AncSZ
  phosphorylation enrichment: 1.21
c-Src
  phosphorylation enrichment: 1.65
Hck
  phosphorylation enrichment: 0.628
MERTK
  phosphorylation enrichment: 0.614
Fyn
  phosphorylation enrichment: 0.78

## ECKLFYSRKEG [PTPN11_Y263_L262F]
c-Src SH2
  SH2 binding enrichment: 0.436
Grb2 SH2
  SH2 binding enrichment: 0.746
SHP2-C SH2
  SH2 binding enrichment: 0.623
Fer (mouse)
  phosphorylation enrichment: 0.445
FGFR1
  phosphorylation enrichment: 0.457
EPHB1
  phosphorylation enrichment: 0.502
Fes
  phosphorylation enrichment: 1
EPHB2
  phosphorylation enrichment: 0.451
Jak2
  phosphorylation enrichment: 0.685
FGFR3
  phosphorylation enrichment: 0.602
c-Abl (mouse)
  phosphorylation enrichment: 0.768
AncSZ
  phosphorylation enrichment: 1.08
c-Src
  phosphorylation enrichment: 0.465
Hck
  phosphorylation enrichment: 0.626
MERTK
  phosphorylation enrichment: 0.515
Fyn
  phosphorylation enrichment: 0.401

## ATARPYRPFII [LRP5_Y1528_YF]
c-Src SH2
  SH2 binding enrichment: 0.861
Grb2 SH2
  SH2 binding enrichment: 1.11
SHP2-C SH2
  SH2 binding enrichment: 0.625
Fer (mouse)
  phosphorylation enrichment: 0.406
FGFR1
  phosphorylation enrichment: 0.402
EPHB1
  phosphorylation enrichment: 0.356
Fes
  phosphorylation enrichment: 0.61
EPHB2
  phosphorylation enrichment: 0.469
Jak2
  phosphorylation enrichment: 0.589
FGFR3
  phosphorylation enrichment: 0.566
c-Abl (mouse)
  phosphorylation enrichment: 1.05
AncSZ
  phosphorylation enrichment: 0.465
c-Src
  phosphorylation enrichment: 0.389
Hck
  phosphorylation enrichment: 0.405
MERTK
  phosphorylation enrichment: 0.469
Fyn
  phosphorylation enrichment: 0.359

## LYRYGYANTSE [SI_Y1233_C1229Y]
c-Src SH2
  SH2 binding enrichment: 2.44
Grb2 SH2
  SH2 binding enrichment: 2.63
SHP2-C SH2
  SH2 binding enrichment: 1.31
Fer (mouse)
  phosphorylation enrichment: 0.32
FGFR1
  phosphorylation enrichment: 0.46
EPHB1
  phosphorylation enrichment: 0.437
Fes
  phosphorylation enrichment: 0.775
EPHB2
  phosphorylation enrichment: 0.39
Jak2
  phosphorylation enrichment: 0.6
FGFR3
  phosphorylation enrichment: 0.507
c-Abl (mouse)
  phosphorylation enrichment: 0.511
AncSZ
  phosphorylation enrichment: 0.806
c-Src
  phosphorylation enrichment: 0.351
Hck
  phosphorylation enrichment: 0.395
MERTK
  phosphorylation enrichment: 0.36
Fyn
  phosphorylation enrichment: 0.383

## PVADRYDQSFE [MAPK14_Y323_P322R]
c-Src SH2
  SH2 binding enrichment: 0.945
Grb2 SH2
  SH2 binding enrichment: 0.926
SHP2-C SH2
  SH2 binding enrichment: 0.838
Fer (mouse)
  phosphorylation enrichment: 0.518
FGFR1
  phosphorylation enrichment: 0.653
EPHB1
  phosphorylation enrichment: 0.475
Fes
  phosphorylation enrichment: 1.5
EPHB2
  phosphorylation enrichment: 0.695
Jak2
  phosphorylation enrichment: 1.1
FGFR3
  phosphorylation enrichment: 0.796
c-Abl (mouse)
  phosphorylation enrichment: 0.844
AncSZ
  phosphorylation enrichment: 0.867
c-Src
  phosphorylation enrichment: 0.717
Hck
  phosphorylation enrichment: 0.441
MERTK
  phosphorylation enrichment: 0.448
Fyn
  phosphorylation enrichment: 0.589

## ACCLLYHGDVV [TUBA4A_Y319_R320H]
c-Src SH2
  SH2 binding enrichment: 0.835
Grb2 SH2
  SH2 binding enrichment: 1.03
SHP2-C SH2
  SH2 binding enrichment: 0.75
Fer (mouse)
  phosphorylation enrichment: 1.88
FGFR1
  phosphorylation enrichment: 2.49
EPHB1
  phosphorylation enrichment: 0.551
Fes
  phosphorylation enrichment: 0.887
EPHB2
  phosphorylation enrichment: 0.539
Jak2
  phosphorylation enrichment: 0.797
FGFR3
  phosphorylation enrichment: 1.45
c-Abl (mouse)
  phosphorylation enrichment: 0.69
AncSZ
  phosphorylation enrichment: 0.918
c-Src
  phosphorylation enrichment: 5.43
Hck
  phosphorylation enrichment: 0.632
MERTK
  phosphorylation enrichment: 0.739
Fyn
  phosphorylation enrichment: 0.507

## GDPTEYYITAI [IGSF22_Y501_S503I]
c-Src SH2
  SH2 binding enrichment: 0.374
Grb2 SH2
  SH2 binding enrichment: 0.647
SHP2-C SH2
  SH2 binding enrichment: 0.478
Fer (mouse)
  phosphorylation enrichment: 0.611
FGFR1
  phosphorylation enrichment: 2.91
EPHB1
  phosphorylation enrichment: 0.594
Fes
  phosphorylation enrichment: 1.1
EPHB2
  phosphorylation enrichment: 0.647
Jak2
  phosphorylation enrichment: 1.38
FGFR3
  phosphorylation enrichment: 2.6
c-Abl (mouse)
  phosphorylation enrichment: 0.809
AncSZ
  phosphorylation enrichment: 1.95
c-Src
  phosphorylation enrichment: 0.703
Hck
  phosphorylation enrichment: 0.562
MERTK
  phosphorylation enrichment: 0.399
Fyn
  phosphorylation enrichment: 0.598

## QSRSPYSSRHS [CDK13_Y415_R410Q]
c-Src SH2
  SH2 binding enrichment: 0.549
Grb2 SH2
  SH2 binding enrichment: 1.2
SHP2-C SH2
  SH2 binding enrichment: 0.852
Fer (mouse)
  phosphorylation enrichment: 0.543
FGFR1
  phosphorylation enrichment: 0.558
EPHB1
  phosphorylation enrichment: 0.471
Fes
  phosphorylation enrichment: 0.808
EPHB2
  phosphorylation enrichment: 0.443
Jak2
  phosphorylation enrichment: 0.823
FGFR3
  phosphorylation enrichment: 0.541
c-Abl (mouse)
  phosphorylation enrichment: 0.597
AncSZ
  phosphorylation enrichment: 0.85
c-Src
  phosphorylation enrichment: 0.705
Hck
  phosphorylation enrichment: 0.593
MERTK
  phosphorylation enrichment: 0.452
Fyn
  phosphorylation enrichment: 0.715

## PLKYLYPNIDK [STAT1_Y668]
c-Src SH2
  SH2 binding enrichment: 0.825
Grb2 SH2
  SH2 binding enrichment: 0.785
SHP2-C SH2
  SH2 binding enrichment: 0.735
Fer (mouse)
  phosphorylation enrichment: 0.614
FGFR1
  phosphorylation enrichment: 0.41
EPHB1
  phosphorylation enrichment: 0.638
Fes
  phosphorylation enrichment: 0.896
EPHB2
  phosphorylation enrichment: 0.69
Jak2
  phosphorylation enrichment: 1
FGFR3
  phosphorylation enrichment: 0.614
c-Abl (mouse)
  phosphorylation enrichment: 0.775
AncSZ
  phosphorylation enrichment: 0.88
c-Src
  phosphorylation enrichment: 0.461
Hck
  phosphorylation enrichment: 0.782
MERTK
  phosphorylation enrichment: 0.786
Fyn
  phosphorylation enrichment: 0.564

## LEEFQYIGELQ [MSH2_Y856_S860L]
c-Src SH2
  SH2 binding enrichment: 0.591
Grb2 SH2
  SH2 binding enrichment: 1.16
SHP2-C SH2
  SH2 binding enrichment: 0.986
Fer (mouse)
  phosphorylation enrichment: 0.656
FGFR1
  phosphorylation enrichment: 0.793
EPHB1
  phosphorylation enrichment: 0.892
Fes
  phosphorylation enrichment: 2.04
EPHB2
  phosphorylation enrichment: 0.788
Jak2
  phosphorylation enrichment: 2.39
FGFR3
  phosphorylation enrichment: 1.08
c-Abl (mouse)
  phosphorylation enrichment: 1.33
AncSZ
  phosphorylation enrichment: 1.92
c-Src
  phosphorylation enrichment: 0.738
Hck
  phosphorylation enrichment: 0.908
MERTK
  phosphorylation enrichment: 0.716
Fyn
  phosphorylation enrichment: 0.718

## LTTPTFGDLNH [TUBB_Y222_Y222F]
c-Src SH2
  SH2 binding enrichment: 0.822
Grb2 SH2
  SH2 binding enrichment: 0.604
SHP2-C SH2
  SH2 binding enrichment: 0.551
Fer (mouse)
  phosphorylation enrichment: 1.05
FGFR1
  phosphorylation enrichment: 0.554
EPHB1
  phosphorylation enrichment: 0.407
Fes
  phosphorylation enrichment: 0.871
EPHB2
  phosphorylation enrichment: 0.384
Jak2
  phosphorylation enrichment: 0.609
FGFR3
  phosphorylation enrichment: 0.577
c-Abl (mouse)
  phosphorylation enrichment: 0.612
AncSZ
  phosphorylation enrichment: 0.729
c-Src
  phosphorylation enrichment: 0.577
Hck
  phosphorylation enrichment: 0.308
MERTK
  phosphorylation enrichment: 0.442
Fyn
  phosphorylation enrichment: 0.378

## MKDLTYASLCF [ALOX5_Y446]
c-Src SH2
  SH2 binding enrichment: 0.411
Grb2 SH2
  SH2 binding enrichment: 0.912
SHP2-C SH2
  SH2 binding enrichment: 0.737
Fer (mouse)
  phosphorylation enrichment: 1.71
FGFR1
  phosphorylation enrichment: 0.901
EPHB1
  phosphorylation enrichment: 2.65
Fes
  phosphorylation enrichment: 1.33
EPHB2
  phosphorylation enrichment: 2.07
Jak2
  phosphorylation enrichment: 1.01
FGFR3
  phosphorylation enrichment: 0.946
c-Abl (mouse)
  phosphorylation enrichment: 1.78
AncSZ
  phosphorylation enrichment: 1.09
c-Src
  phosphorylation enrichment: 5.59
Hck
  phosphorylation enrichment: 5.35
MERTK
  phosphorylation enrichment: 3.15
Fyn
  phosphorylation enrichment: 6.75

## GCRSKSVGLWG [KCNQ1_Y184_Y184S]
c-Src SH2
  SH2 binding enrichment: 0.531
Grb2 SH2
  SH2 binding enrichment: 0.875
SHP2-C SH2
  SH2 binding enrichment: 0.899
Fer (mouse)
  phosphorylation enrichment: 0.365
FGFR1
  phosphorylation enrichment: 0.429
EPHB1
  phosphorylation enrichment: 0.38
Fes
  phosphorylation enrichment: 0.62
EPHB2
  phosphorylation enrichment: 0.488
Jak2
  phosphorylation enrichment: 0.539
FGFR3
  phosphorylation enrichment: 0.382
c-Abl (mouse)
  phosphorylation enrichment: 0.477
AncSZ
  phosphorylation enrichment: 0.51
c-Src
  phosphorylation enrichment: 0.436
Hck
  phosphorylation enrichment: 0.423
MERTK
  phosphorylation enrichment: 0.389
Fyn
  phosphorylation enrichment: 0.344
